Literature values, collected in paper PMC6983177.

What was measured:
pCDC25c (Homo sapiens) = pCDC25c (Homo sapiens) (UniProt P30307)
[1] = molecular target: RNA polymerase II CTD phosphopeptide (Homo sapiens) (UniProt P24928); assay: isothermal titration calorimetry

UniProt P30307, sequence (P30307 2-473): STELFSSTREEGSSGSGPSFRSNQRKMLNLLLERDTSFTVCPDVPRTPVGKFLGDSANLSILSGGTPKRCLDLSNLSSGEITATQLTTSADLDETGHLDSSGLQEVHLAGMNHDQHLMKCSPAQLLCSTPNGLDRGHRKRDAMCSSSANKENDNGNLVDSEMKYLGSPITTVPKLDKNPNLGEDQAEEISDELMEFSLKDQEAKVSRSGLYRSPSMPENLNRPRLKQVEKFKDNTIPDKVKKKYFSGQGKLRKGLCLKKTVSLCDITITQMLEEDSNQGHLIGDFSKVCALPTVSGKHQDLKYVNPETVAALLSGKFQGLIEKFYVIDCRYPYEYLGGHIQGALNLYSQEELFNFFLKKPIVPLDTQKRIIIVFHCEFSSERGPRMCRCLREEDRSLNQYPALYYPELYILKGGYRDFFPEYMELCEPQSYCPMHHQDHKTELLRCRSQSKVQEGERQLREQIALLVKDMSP

## Pin1 WW (from UniProt Q13526)
pCDC25c (Homo sapiens)
  Kd: 8 µM
[1]
  Kd: 35 µM
